In test [1] the target is recombinant cynomolgus PILRB (cynomolgus monkey). Description: SPR, Carterra LSA, antibody amine-coupled, kinetic fit. On the technique in general: SPR reads the build-up and loss of mass on a sensor chip optically.
For test [2] the target is unchanged. Description: SPR, Biacore T200, antibody captured by anti-Fab.

Where a chain is given by its changes, count along the chain named.

B1: X20 (antibody, human IgG4, V domains shown)
VH: QVQLVQSGAEVKKPGSSVKVSCKASGYNFLHYDVNWVRQAPGQGLEWMGGIIPIFGTANYAQKFQGRVTITADESTSTAYMELSSLRSEDTAVYYCATAVGAGWFDPWGQGTLVTVSS
VL: DIVMTQSPDSLAVSLGERATINCKSSQSVYFSENNKNYLAWYQQKPGQPPKLLIYWASTRESGVPDRFSGSGSGTDFTLTISSLQAEDVAVYYCQQYYEEPYTFGQGTRLEIK
Broadly, the Kd is the equilibrium constant for the complex coming apart. In the case of B1, the Kd in test [1] came to 0.1 nM.

B2: X4 (antibody, human IgG4, V domains shown)
VH: B1 VH with H31N, A99G
VL: B1 VL with E33P, Y98F
For B2, the dissociation constant (Kd) in test [1] was found to be 0.3 nM.

B3: X17 (antibody, human IgG4, V domains shown)
VH: B1 VH with P107T
VL: B1 VL with Y30F, S32D, Y98F
Consider B3, for which, in test [1], the Kd was determined as 0.3 nM.

B4: X11 (antibody, human IgG4, V domains shown)
VH: B1 VH with H31N, A99G
VL: B1 VL
As for B4, the dissociation constant Kd is 0.4 nM in test [2] and 0.5 nM in test [1].

B5: X18 (antibody, human IgG4, V domains shown)
VH: B1 VH with P107T
VL: B1 VL with Y30W, S32D, E33P, Y98F
In the case of B5, the Kd in test [1] was 0.3 nM.

B6: X7 (antibody, human IgG4, V domains shown)
VH: B1 VH with H31N, A99G
VL: B1 VL with Y30F, S32D, Y98F
Consider B6, for which the Kd in test [1] was found to be 0.5 nM.

B7: X14 (antibody, human IgG4, V domains shown)
VH: B1 VH with P107T
VL: B1 VL with E33P, Y98F
In the case of B7, the Kd in test [1] worked out at 0.2 nM.

(Values after patent US20260070976A1.)
